Measurements published in patent publication US20090005257A1 (published 2009).
Substitutions are numbered along the chain they refer to. Numbers in names are those of the source.

T1: human Tumor Necrosis Factor Receptor 1 (TNFR1) expressed on HeLa cells (human, UniProt P19438 30-455)
T1 sequence (looked up): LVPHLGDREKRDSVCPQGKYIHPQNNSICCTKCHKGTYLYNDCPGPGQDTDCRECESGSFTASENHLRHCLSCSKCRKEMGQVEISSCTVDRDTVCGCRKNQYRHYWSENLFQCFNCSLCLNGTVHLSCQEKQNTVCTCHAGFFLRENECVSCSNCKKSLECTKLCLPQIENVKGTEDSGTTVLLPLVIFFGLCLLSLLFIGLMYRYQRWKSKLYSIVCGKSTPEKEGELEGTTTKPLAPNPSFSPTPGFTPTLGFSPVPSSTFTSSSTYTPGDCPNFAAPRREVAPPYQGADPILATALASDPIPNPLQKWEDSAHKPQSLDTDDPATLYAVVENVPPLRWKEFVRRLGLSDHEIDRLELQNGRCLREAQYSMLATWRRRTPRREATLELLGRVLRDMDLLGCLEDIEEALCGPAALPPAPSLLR

T2: TNF receptor 1 Fc fusion protein (human, UniProt P19438 30-211)
T2 construct: Bought; also called recombinant TNF receptor 1 (p55); human Tumor Necrosis Factor Receptor 1; not shown: Fc part of the bought fusion protein (captured by an anti-human Fc antibody)
T2 sequence (looked up): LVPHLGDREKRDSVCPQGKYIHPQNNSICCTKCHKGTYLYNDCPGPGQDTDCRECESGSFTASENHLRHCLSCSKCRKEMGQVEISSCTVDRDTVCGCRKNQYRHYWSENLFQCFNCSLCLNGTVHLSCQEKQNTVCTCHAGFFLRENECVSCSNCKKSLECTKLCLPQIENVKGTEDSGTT

B1: TAR1-5-19-Y49D (other)
VL: DIQMTQSPSSLSASVGDRVTITCRASQSIDSYLHWYQQKPGKAPKLLIDSASELQSGVPSRFSGSGSGTDFTLTISSLQPEDFATYYCQQVVWRPFTFGQGTKVEIKR
B2: TAR1-5-19-Y49N (other)
VL: B1 VL with D49N
B3: HEL4 (other)
VH: EVQLLESGGGLVQPGGSLRLSCAASGFRISDEDMGWVRQAPGKGLEWVSSIYGPSGSTYYADSVKGRFTISRDNSKNTLYLQMNSLRAEDTAVYYCASALEPLSEPLGFWGQGTLVTVSS
notes: Human VH dAb against hen egg lysozyme; also called dAb HEL4; Fd-myc-HEL4
B4: TAR2-10-27 (other)
VH: EVQLLESGGGLVQPGGSLRLSCAASGFTFEWYWMGWVRQAPGKGLEWVSAISGSGGSTYYADSVKGRFTISRDNSKNTLYLQMNSLRAEDAAVYYCAKVKLGGGPNFGYRGQGTLVTVSS
notes: Human VH3 single domain (dAb) against human TNFR1, tested as soluble protein purified on protein A beads
B5: TAR2-10-27-Y32D (other)
VH: B4 VH with Y32D
B6: anti-HSA VH clone #3 (other)
VH: EVQLLESGGGLVQPGGSLRLSCAASGFTFSKYWMSWVRQAPGKGLEWVSSIDFMGPHTYYADSVKGRFTISRDNSKNTLYLQMNSLRAEDTAVYYCAKGRTSMLPMKGKFDYWGQGTLVTVSS
notes: As clone #1
B7: anti-HSA VH clone #1 (other)
VH: EVQLLESGGGLVQPGGSLRLSCAASGFTFDLYDMSWVRQAPGKGLEWVSSIVNSGVRTYYADSVKGRFTISRDNSKNTLYLQMNSLRAEDTAVYYCAKLNQSYHWDFDYWGQGTLVTVSS
notes: From library 4G (human VH3, DP47 germline gene + JH4 segment)
B8: anti-HSA VH clone #6 (other)
VH: EVQLLESGGGLVQPGGSLRLSCAASGFTFHRYSMSWVRQAPGKGLEWVSTILPGGDVTYYADSVKGRFTISRDNSKNTLYLQMNSLRAEDTAVYYCAKQTPDYMFDYWGQGTLVTVSS
notes: As clone #1
B9: anti-HSA VH clone #4 (other)
VH: B8 VH with H30Y, R31D, S33N, L52T, P53H, G54T, D56G, T100N, D102S, M104Q
notes: As clone #1
B10: anti-HSA VH clone #2 (other)
VH: EVQLLESGGGLVQPGGSLRLSCAASGFTFSDYRMSWVRQAPGKGLEWVSTIISNGKFTYYADSVKGRFTISRDNSKNTLYLQMNSLRAEDTAVYYCAKQDWMYMFDYWGQGTLVTVSS
notes: As clone #1
B11: anti-HSA VH clone #7 (other)
VH: EVQLLESGGGLVQPGGSLRLSCAASGFTFWKYNMAWVRQAPGKGLEWVSTILGEGNNTYYADSVKGRFTISRDNSKNTLYLQMNSLRAEDTAVYYCAKTMDYKFDYWGQGTLVTVSS
notes: As clone #1
B12: anti-HSA VH clone #10 (other)
VH: B8 VH with H30D, R31E, S33N, G54H, V57R, T100D, D102L, M104R
notes: As clone #1; the one clone recovered with the heat step
B13: TAR1-5-19 (other)
VL: B1 VL with D49Y
notes: Vκ1 single domain (dAb) specific for TNF-α; also called PEP1-5-19
B14: DP47 F27D/F29V (other, name in Kabat numbering)
VH: EVQLLESGGGLVQPGGSLRLSCAASGDTVSSYAMSWVRQAPGKGLEWVSAISGSGGSTYYADSVKGRFTISRDNSKNTLYLQMNSLRAEDTAVYYCAKSYGAFDYWGQGTLVTVSS
B15: DP47 S30N/A33D (other, name in Kabat numbering)
VH: B14 VH with D27F, V29F, S30N, A33D
notes: also called A33D/S30N
B16: DP47 F27D/F29V/Y32D/S35G (other, name in Kabat numbering)
VH: B14 VH with Y32D, S35G
notes: kept apart as printed
B17: DP47 S53P/G54D (other, name in Kabat numbering)
VH: B14 VH with D27F, V29F, S54P, G55D
B18: pA-C36 (other)
VH: EVQLLESGGGLVQPGGSLRLSCAASGVNVSHDSMTWVRQAPGKGLEWVSAIRGPNGSTYYADSVKGRFTISRDNSKNTLYLQMNSLRAEDTAVYYCASGARHADTERPPSQQTMPFWGQGTLVTVSS
notes: Frameworks of DP47d, ranges as for HEL4; also called pA-36
B19: pA-C59 (other)
VH: EVQLLESGGGLVQPGGSLRLSCAASGDSISDDYMAWVRQAPGKGLEWVSSIDDKNGSTYYADSVKGRFTISRDNSKNTLYLQMNSLRAEDTAVYYCAGGDGQAHKVDYWGQGTLVTVSS
notes: Frameworks of DP47d, ranges as for HEL4
B20: pA-C13 (other)
VH: EVQLLESGGGLVQPGGSLRLSCAASGDMVNDKDMSWVRQAPGKGLEWVSSISTENGSTYYADSVKGRFTISRDNSKNTLYLQMNSLRAEDTAVYYCAGVRDEVAMGENPDLSYWGQGTLVTVSS
notes: From the library made by diversifying the CDR loops of DP47d; frameworks of DP47d, ranges as for HEL4; also called Clone 13
B21: pA-C47 (other)
VH: EVQLLESGGGLVQPGGSLRLSCAASGYNITDENMAWVRQAPGKGLEWVSTIAADNGSTYYADSVKGRFTISRDNSKNTLYLQMNSLRAEDTAVYYCATTEAAGVEEDNVRSWGQGTLVTVSS
notes: as for B19
B22: pA-C76 (other)
VH: EVQLLESGGGLVQPGGSLRLSCAASGDNVISDDMSWVRQAPGKGLEWVSTINGPSGSTYYADSVKGRFTISRDNSKNTLYLQMNSLRAEDTAVYYCAANGEDTDMLDMWGDRSAALKSWGQGTLVTVSS
notes: as for B19
B23: DP47 quadruple mutant F27D/F29V/S35G/Y32E (other, name in Kabat numbering)
VH: B14 VH with Y32E, S35G
B24: TAR2-10-27-F27D (other)
VH: B4 VH with F27D
notes: Soluble dAb

target: T3, TNF-α (UniProt P01375 77-233); assay: RBA-ELISA
T3 construct: also called tumour necrosis factor
T3 sequence (P01375 77-233 limits assumed): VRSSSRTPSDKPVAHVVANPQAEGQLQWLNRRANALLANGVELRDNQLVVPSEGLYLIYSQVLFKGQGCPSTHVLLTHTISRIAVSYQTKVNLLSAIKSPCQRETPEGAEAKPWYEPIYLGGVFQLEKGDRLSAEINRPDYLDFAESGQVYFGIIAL

Binder	fold reduction of binding against TAR1-5-19
B1	6 to 20 fold
B2	6 to 20 fold

target: T4, hen egg lysozyme (hen, UniProt P00698 19-147); assay: phage ELISA on immobilised HEL
T4 construct: also called HEL; hen egg white lysozyme
T4 sequence (P00698 19-147): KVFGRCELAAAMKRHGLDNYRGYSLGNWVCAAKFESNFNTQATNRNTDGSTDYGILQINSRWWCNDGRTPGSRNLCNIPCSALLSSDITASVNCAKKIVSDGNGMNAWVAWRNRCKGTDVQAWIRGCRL
Method: Phage ELISA assays. The ELISA wells were coated overnight at 4° C. with one of the following ligands: 10 μg/ml of protein A in PBS, 10 μg/ml of mAb 9E10 in PBS, or 3 mg/ml of HEL in 0.1 M NaHCO₃ buffer, pH 9.6. After blocking the wells with PBS containing 2% Tween-20 (PBST), a dilution series of phage in PBST was incubated for 2 h. After washing with PBS, bound phage were detected as follows. In assays for binding to REL, phage was detected directly using a conjugate of horseradish peroxidase with an anti-M13 monoclonal antibody (Amersham) using 3,3′,5,5′-tetramethylbenzidine as substrate.

Binder	binding result
B3	binds

target: T1, human Tumor Necrosis Factor Receptor 1 …; assay: cell-based or functional assay

Binder	IC50 (read off the curve), inhibition of TNF-induced IL-8 secretion of HeLa cells
B4	~10 nM
B5	~5 nM

target: T5, human serum albumin (human, UniProt P02768 25-609); assay: phage ELISA on HSA, heated against unheated
T5 construct: also called HSA
T5 sequence (P02768 25-609 limits assumed): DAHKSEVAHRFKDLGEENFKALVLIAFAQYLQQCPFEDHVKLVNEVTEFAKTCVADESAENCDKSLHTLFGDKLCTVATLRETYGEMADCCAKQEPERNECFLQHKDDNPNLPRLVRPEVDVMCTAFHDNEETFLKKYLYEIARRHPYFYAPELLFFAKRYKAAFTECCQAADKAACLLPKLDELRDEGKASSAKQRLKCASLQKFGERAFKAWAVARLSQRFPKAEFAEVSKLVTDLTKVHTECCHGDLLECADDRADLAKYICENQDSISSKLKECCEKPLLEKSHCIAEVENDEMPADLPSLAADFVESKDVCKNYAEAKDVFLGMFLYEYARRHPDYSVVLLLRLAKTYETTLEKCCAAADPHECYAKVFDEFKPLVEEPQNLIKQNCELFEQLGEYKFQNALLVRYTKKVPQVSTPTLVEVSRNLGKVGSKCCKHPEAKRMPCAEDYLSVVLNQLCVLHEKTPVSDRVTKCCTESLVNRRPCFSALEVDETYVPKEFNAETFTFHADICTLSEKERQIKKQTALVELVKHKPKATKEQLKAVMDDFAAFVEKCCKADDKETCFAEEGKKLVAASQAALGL
Method: The ELISA wells were coated overnight at 4° C. with one of the following ligands: 10 μg/ml of protein A in PBS, 10 μg/ml of mAb 9E10 in PBS, or 3 mg/ml of HEL in 0.1 M NaHCO₃ buffer, pH 9.6. After blocking the wells with PBS containing 2% Tween-20 (PBST), a dilution series of phage in PBST was incubated for 2 h. After washing with PBS, bound phage were detected as follows. In assays for binding to REL, phage was detected directly using a conjugate of horseradish peroxidase with an anti-M13 monoclonal antibody (Amersham) using 3,3′,5,5′-tetramethylbenzidine as substrate. In assays for binding to protein A, the phage (4×10¹⁰ TU/ml in PBS) was first biotinylated at 4° C. with biotin-NHS (Perbio) (50 μM final concentration) and detected by sequential addition of streptavidin-horseradish peroxidase conjugate (1 μg/ml) (Sigma-Aldrich) in PBST, and substrate as above. In assays for binding to human serum albumin (USA) (Sigma, coating at 10 μg/ml in PBS), the ELISA was performed in PBS supplemented with 2% skim-milk powder (PBSM) and bound phage were detected in two steps using a rabbit anti-fd bacteriophage monoclonal antibody (Sigma, 1/1000 dilution) and goat anti-rabbit IgG serum conjugated with horseradish peroxidase (Sigma, 1/1000 dilution) and substrate as above.

Binder	% HSA binding signal retained after heating
B6	< 10%
B7	< 10%
B8	< 10%
B9	< 10%
B10	< 10%
B11	< 10%

target: T5, human serum albumin; assay: phage ELISA on HSA, heated 80 C 10 min against unheated
Method: (§1) A phage ELISA was performed according to the protocol of Section 5 with the following modifications. 1×10¹⁰ phage were either heat-treated (10 minutes at 80° C. in 100 μL aliquots) or left untreated. The samples were centrifuged for 10 minutes at 14,000 rpm at 4° C. and the supernatants were added to ELISA wells coated with HSA (with a dilution series of ⅓). After developing the ELISA, the OD450 nm values (y-axis) for each heat treated/unheated phage pair were plotted against the phage number α-axis) and the %-refoldability was calculated.

Binder	Refoldability (HSA binding retained after heating)
B6	0.55%
B7	1.5%
B8	< 0.2%
B12	~100%
B9	9.1%

target: T5, human serum albumin; assay: phage ELISA on HSA, purified phage, 1/3 dilution series
Method: as §1

Binder	phage number, +Heat	phage number, -Heat
B6	1e+10 phage	5.5e+07 phage
B7	1e+10 phage	1.5e+08 phage
B8	9.75e+09 phage	2.1e+07 phage
B12	1e+10 phage	1e+10 phage
B9	1e+10 phage	5.7e+08 phage
B10	1e+10 phage	1.3e+09 phage

target: T3, TNF-α; assay: phage ELISA on TNF-α coated wells, heated 80 C 10 min against unheated

Binder	% refolding (TNF-α binding retained after heating)
B13	80%
B1	93%
B2	98%

target: T6, protein A (UniProt P38507 37-477); assay: phage ELISA on protein A, heated 80 C against unheated, three data points
T6 construct: also called pA
Method: (§2) After biotinylation of the phage, for each clone, a 100 μl sample of phage was transferred to a thin-wall PCR tube (and the remaining biotinylated phage was kept on ice). The tube was placed in a PCR apparatus for incubation at 80° C. during 10 min (temperature of cover lid: 85° C.). After heating, the tube was rapidly cooled down to 4° C. in the PCR apparatus.
(§3) ELISA plates were coated and blocked as described in Section 4. The samples were transferred to the empty wells of coated/blocked ELISA plates, and incubated for 2 hours at room temperature. Unbound phage was then removed by washing the wells 6-ties with PBS. For detection, Str-HRP (from a 1 mg/ml stock in PBS) were diluted 1/2000 in PBS supplemented with 2% v/v TWEEN 20 (Polyoxyethylensorbitan monolaurate; for protein A-based ELISA) or 2% w/v BSA (for protein L-based ELISA), and 100 μl of the resulting solution was added to each ELISA well. After incubation for 1 hour at room temperature, the unbound conjugate was removed by washing the wells 6-times with PBS. For colorimetric reaction, a 10 mg/ml solution of TMB (tetramethylbenzidine) was diluted 100-fold in a buffer of 0.1 M sodium acetate, pH 6.0. Next, hydrogen peroxyde was added (0.4 ul per ml of buffer/TMB, and 100 ul of this solution was added to each ELISA well. After color (blue) developed, the reaction was stopped by adding 50 μl of 1 M sulfuric acid per well (color turns to yellow). The optical density was recorded at 450 nm.
These clones were characterized for refoldability on phage (according to the protocol of Section 5, but with three data points being taken) and in solution.

Binder	Refoldability on phage (protein A binding retained after heating)
B3	82%
B14	62%
B15	81%
B16	80%
B17	19%
B18	80%

target: T6, protein A; assay: phage ELISA on protein A, heated 80 C against unheated, titration (Section 5)
Method: as §2, §3

Binder	% refolding (protein A binding retained after heating)
B3	18.5%
B19	25%
B20	35%
B21	25%
B22	35%
B15	2.11%
B23	29.5%
B18	25%

target: T3, TNF-α; assay: RBA-ELISA: dAb competes with binding of soluble TNF-α to immobilised TNF-α receptor

Binder	IC50
B13	30 nM
B1	200 nM
B2	900 nM

target: T6, protein A; assay: phage ELISA on protein A, multivalent phage 5x10^11 TU/ml, 80 C 10 min against untreated
Method: The ELISA wells were coated overnight at 4° C. with one of the following ligands: 10 μg/ml of protein A in PBS, 10 μg/ml of mAb 9E10 in PBS, or 3 mg/ml of HEL in 0.1 M NaHCO₃ buffer, pH 9.6. After blocking the wells with PBS containing 2% Tween-20 (PBST), a dilution series of phage in PBST was incubated for 2 h. After washing with PBS, bound phage were detected as follows. […] In assays for binding to protein A, the phage (4×10¹⁰ TU/ml in PBS) was first biotinylated at 4° C. with biotin-NHS (Perbio) (50 μM final concentration) and detected by sequential addition of streptavidin-horseradish peroxidase conjugate (1 μg/ml) (Sigma-Aldrich) in PBST, and substrate as above.

Binder	fold reduction of binding after heating
B3	3 fold

target: T2, TNF receptor 1 Fc fusion protein; assay: receptor binding ELISA: dAb mixed with TNF (10 ng/ml) and added to TNFR1-Fc captured by anti-human Fc; bound TNF detected with biotinylated anti-TNF antibody; blocked ligand TNF
Method: Briefly, MAXISORP plates were incubated overnight with 30Mg/ml anti-human Fc mouse monoclonal antibody (Zymed, San Francisco, USA). […] The reaction was stopped by the addition of HCl and the absorbance was read at 450 mm.

Binder	IC50 (read off the curve)
B4	~5 nM
B24	~6 nM
